Each block holds one molecule with its values, some of them ahead of it.
Key:
GST-Sed5H1 + 2 (yeast) = GST-Sed5H1 + 2 (yeast) (UniProt Q01590); test: pull-down
GST-Sed5H2 (yeast) = GST-Sed5H2 (yeast) (UniProt Q01590); test: pull-down
GST-Sed5H1 (yeast) = GST-Sed5H1 (yeast) (UniProt Q01590); test: pull-down
[1] = target: yeast COG complex (purified from TAP-yCog2 cells) (yeast, UniProt P53079;P53271;P40094;Q06096;P53951;P53959;P53195;Q04632); test: pull-down
[2] = target: rat Cog3p (rat (endogenous in rat liver Golgi membranes)); test: co-IP

fold less efficient binding than to the cytosolic portion of Sed5p and Sed5H3 (GST-Sed5H1 + 2 (yeast)): 4 fold
fold less efficient binding than to the cytosolic portion of Sed5p and Sed5H3 (GST-Sed5H2 (yeast)): 4 fold
fold less efficient binding than to the cytosolic portion of Sed5p and Sed5H3 (GST-Sed5H1 (yeast)): 4 fold
Molecule: yeast COG complex (purified from TAP-yCog2 cells), P53079;P53271;P40094;Q06096;P53951;P53959;P53195;Q04632

percent coimmunoprecipitated [2]: 4%
B3: vesicle-tethering factor p115 (rat liver Golgi) (natural protein)
chain: MNFLRGVMGGQSAGPQHTEAETIQKLCDRVASSTLLDDRRNAVRALKSLSKKYRLEVGIQAMEHLIHVLQTDRSDSEIIAYALDTLYNIISNDEEEEVEENSTRQSEDLGSQFTEIFIKQPENVTLLLSLLEEFDFHVRWPGVRLLTSLLKQLGPPVQQIILVSPMGVSKLMDLLADSREIIRNDGVLLLQALTRSNGAIQKIVAFENAFERLLDIITEEGNSDGGIVVEDCLILLQNLLKNNNSNQNFFKEGSYIQRMKAWFEVGDENPGWSAQKVTNLHLMLQLVRVLVSPTNPPGATSSCQKAMFQCGLLQQLCTILMATGIPADILTETINTVSEVIRGCQVNQDYFASVNAPSNPPRPAIVVLLMSMVNERQPFVLRCAVLYCFQCFLYKNEKGQGEIVATLLPSTIDATGNSVSAGQLLCGGLFSTDSLSNWCAAVALAHALQGNATQKEQLLRVQLATSIGNPPVSLLQQCTNILSQGSKIQTRVGLLMLLCTWLSNCPIAVTHFLHNSANVPFLTGQIAENLGEEEQLVQGLCALLLGISIYFNDNSLENYTKEKLKQLIEKRIGKENYIEKLGFISKHELYSRASQKPQPNFPSPEYMIFDHEFTKLVKELEGVITKAIYKSSEEDKKEEEVKKTLEQHDNIVTHYKNMIREQDLQLEELKQQVSTLKCQNEQLQTAVTQQASQIQQHKDQYNLLKVQLGKDNHHQGSHSDGAQVNGIQPEEISRLREEIEELRSHQVLLQSQLAEKDTVIENLRSSQVSGMSEQALATCSPRDAEQVAELKQELSALKSQLCSQSLEITRLQTENSELQQRAETLAKSVPVEGESELVTAAKTTDVEGRLSALLQETKELKNEIKALSEERTAIQKQLDSSNSTIAILQTEKDKLYLEVTDSKKEQDDLLVLLADQDQKILSLKSKLKDLGHPVEEEDESGDQEDDDDELDDGDRDQDI

binding result [1]: binds
B6: GST-Sed5H3 (SNARE domain of Sed5p) (domain or fragment)
chain: FMTSLLDESSEKNNNSSNQGELSFPQNDSQLMLMEEGQLSNNVYLQERNRAVETIESTIQEVGNLFQQLASMVQEQGEVIQRIDANVDDIDLNISGAQRELLKYFDRIKSNRWLAAK

Further lines, the molecule ahead of its results:

B1: GST-Sed5p, cytosolic portion (domain or fragment)
chain: MNIKDRTSEFQQSVLSYKKRNKNFREQQRERLQEKESENFANNTTGNGKSVSEFQKKASGIAHEISSTAQLLSKLAVLAKRKPMFNDNPVEIAELSFLIKRKIYAIEQSLVQLSQLKKTDVNGNTSNQSSKQPSAVQHSKNVVNLLNTQMKNISGSFKDVLEERQRLEMANKDRWQKLTTDTGHAPADDQTQSNHAADLTTYNNSNPFMTSLLDESSEKNNNSSNQGELSFPQNDSQLMLMEEGQLSNNVYLQERNRAVETIESTIQEVGNLFQQLASMVQEQGEVIQRIDANVDDIDLNISGAQRELLKYFDRIKSNR
binding result [1]: binds

B2: GS28 (rat liver Golgi) (natural protein)
chain: MAAGTSNYWEDLRKQARQLENELDLKLVSFSKLCTSYSHSSARDGGRDRYSSDTTPLLNGSSQDRMFETMAIEIEQLLARLTGVNDKMAEYTHSAGVPSLNAALMHTLQRHRDILQDYTHEFHKTKANFMAIRERENLMGSVRKDIESYKSGSGVNNRRTELFLKEHDHLRNSDRLIEETISIAMATKENMTSQRGMLKSIHSKMNTLANRFPAVNSLIQRINLRKRRDSLILGGVIGICTILLLLYAFH
percent coimmunoprecipitated [2]: < 4%

B4: Golgi matrix protein GM130 (rat liver Golgi) (natural protein)
chain: MWPPRFPPPRPGMSEETRQSKLAAAKKKLREYQQKNSPGVPAGAKKKKKIKNGHSPERTSASDCQSAENVPTDHTAPAPPSTAAATMFLGVVPSPDADLIQSHDAGNCSNLMEETKTFSSTESLRQLSQQLNGLVSESTSYINGEGLTSSNMKELESRYQELAVALDSSYVTNKQLSSTIEELKQQNQDTLDQLEKEKKDYQQKLAKEQGALREQLQVHIQTIGILVSEKAELQTALAHTQQAARQKAGESEDLASRLQSSRQRVGELERTLSTVSTQQKQADRYNKDLTKERDALKLELYKNGKSNEDLRQQNSELEEKLRVLVAEKAAAQLGAEELQKKLEMSELLLQQFSSQSEASGSNEQLQQAMEERAQLESHVGQLMESLKQLQVERDQYAENLKGESAMWQQRVQQMAEQVHALKEEKEQRESQVQELEASLAELRSQMEEPPPPEPPTGPSEAEERLQGEVEQLQKELEGLTGQLRAQVQDNESLSHLNREQEGRLLELEREAQHWSEQAEERKQILESMQSDRTTISRALSQNRELKEQLAELQNGFVRLTNENMEITSALQSEQHVKKELARKLGELQERLGELKETVELKSQEAQGLQEQRDQCLSHLQQYAAAYQQHLTAYEQLTSEKEALHKQLLLQTQLMDQLQHEEVQGKMAAEMARQELQEAQERLKASSQENQQLQAQLSLLVLPGEDMDQEEQDEEVPQPSLTIPEDLVSREAMVAFCNAAIARAEEEQARLRVQLREQKARCRSLAHLAAPVQSKLEKEAVVPRDMGDSVSEESNQALHVAMEKLQNRFLEVMQEKVELKERVEELEHCCIQLSGETDTIGEYIALYQNQRAVLKARHLEKEEYISRLAQDKEEMKVKLLELQELVLRLVNERNEWQGKFLAVSQNPADVPAPVPTGSQEFGAADQQGDLREVSLADDTEPAQGEAGVPAPQENPTAQQIMQLLREIQNPQERPGLGSNPCIPFFYRADENDEVKIMVI
percent coimmunoprecipitated [2]: 10%

B5: Syntaxin5a (rat liver Golgi) (natural protein)
chain: MSCRDRTQEFLSACKSLQSRQNGIQTNKPALHATRQCSEFTLMARRIGKDLSNTFAKLEKLTILAKRKSLFDDKAVEIEELTYIIKQDINSLNKQIAQLQDFVRAKGSQSGRHLQTHSNTIVVSLQSKLASMSNDFKSVLEVRTENLKQQRNRREQFSRAPVSALPLAPNNLGGGPIVLGGESRASRDVAIDMMDPRTSQQLQLIDEQDSYIQSRADTMQNIESTIVELGSIFQQLAHMVKEQEETIQRIDENVLGAQLDVEAAHSEILKYFQSVTSNRWLMVKIFLILIVFFIIFVVFLA
percent coimmunoprecipitated [2]: < 4%
